Assay results as given in the supplement of paper PMC10567573.

B1: MYBL2 (parent)
chain: FPNRTDQQCQYRWLRVLNPDLVKG

Variants of: B1
Assay: protein stability index of a GFP-peptide fusion (GPS, HEK-293T) (PSI 1-6); higher = more stable
Conditions: c terminus: a fixed tail appended
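Further: lentivirally expressed fusions sorted by FACS into six bins by GFP to DsRed ratio, PSI derived from sequencing read proportions per bin multiplied by bin number.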

In order of falling protein stability index:
1. FPNRTDQQCQYHWLRVLNPDLVKG [R12H]  3.76
2. FVNRTDQQCQYRWLRVLNPDLVKG [P2V]  3.52
3. FPNRTDQQCQYRELRVLNPDLVKG [W13E]  3.26
4. GPNRTDQQCQYRWLRVLNPDLVKG [F1G]  3.23
5. FPNRTDQQCQYRWARVLNPDLVKG [L14A]  3.17
6. FPNRTDQQCQYRKLRVLNPDLVKG [W13K]  3.05
7. FPNRTDQQCQYRSLRVLNPDLVKG [W13S]  3.03
8. FPNRTDQQCQYRDLRVLNPDLVKG [W13D]  2.98
9. FPNRTDGQCQYRWLRVLNPDLVKG [Q7G]  2.96
10. FPNRTDQQTQYRWLRVLNPDLVKG [C9T]  2.9
11. FPNRTDQQCQYRWLRVLCPDLVKG [N18C]  2.8
12. FPNRTDQQCQYRWLRVLLPDLVKG [N18L]  2.74
13. FPNRTDQQCQYRWLRVLFPDLVKG [N18F]  2.73
14. FENRTDQQCQYRWLRVLNPDLVKG [P2E]  2.67
15. FPNLTDQQCQYRWLRVLNPDLVKG [R4L]  2.65
16. FPNPTDQQCQYRWLRVLNPDLVKG [R4P]  2.64
17. IPNRTDQQCQYRWLRVLNPDLVKG [F1I]  2.6
18. FPNRTDQQCQYRHLRVLNPDLVKG [W13H]  2.56
19. FPNRTDQQCQYCWLRVLNPDLVKG [R12C]  2.55
20. SPNRTDQQCQYRWLRVLNPDLVKG [F1S]  2.51
21. FPNETDQQCQYRWLRVLNPDLVKG [R4E]  2.51
22. FPNRTDQQWQYRWLRVLNPDLVKG [C9W]  2.51
23. FPNRTDQQMQYRWLRVLNPDLVKG [C9M]  2.45
24. FPNRTDQQCQYRWRRVLNPDLVKG [L14R]  2.44
25. FPNRTDQQCQYRWLRVLNPDLVKN [G24N]  2.44
26. MPNRTDQQCQYRWLRVLNPDLVKG [F1M]  2.37
27. FPNRTDQQCQYRWLRVLNKDLVKG [P19K]  2.36
28. VPNRTDQQCQYRWLRVLNPDLVKG [F1V]  2.31
29. FPNRTDDQCQYRWLRVLNPDLVKG [Q7D]  2.3
30. FPNRTDQQCQYRMLRVLNPDLVKG [W13M]  2.27
31. FPNDTDQQCQYRWLRVLNPDLVKG [R4D]  2.27
32. FPNRTDQQCQYRWLRVLNGDLVKG [P19G]  2.26
33. FPNRTDQQCQYKWLRVLNPDLVKG [R12K]  2.25
34. FPNRTDQQCQYSWLRVLNPDLVKG [R12S]  2.25
35. FPNRTDQQCQYFWLRVLNPDLVKG [R12F]  2.25
36. FPNRTDQQQQYRWLRVLNPDLVKG [C9Q]  2.24
37. FPNRTDQQCQYRWLRVLNHDLVKG [P19H]  2.22
38. FPNFTDQQCQYRWLRVLNPDLVKG [R4F]  2.22
39. FPNRTDQQCQYRWVRVLNPDLVKG [L14V]  2.21
40. FPNQTDQQCQYRWLRVLNPDLVKG [R4Q]  2.19
41. FPNRTDQQCQYRWLRVLTPDLVKG [N18T]  2.19
42. FPNRTDPQCQYRWLRVLNPDLVKG [Q7P]  2.17
43. FPNRTDQQCQYRWLRVLEPDLVKG [N18E]  2.16
44. FPNRTDQQCQYRWMRVLNPDLVKG [L14M]  2.12
45. FPNRTDQQCQYRWLRVLDPDLVKG [N18D]  2.09
46. FPNRTDQQCQYRLLRVLNPDLVKG [W13L]  2.08
47. FNNRTDQQCQYRWLRVLNPDLVKG [P2N]  2.06
48. FDNRTDQQCQYRWLRVLNPDLVKG [P2D]  2.06
49. FPNRTDQQCQYRWPRVLNPDLVKG [L14P]  2.05
50. FPNRTDQQCQYRWLRVLWPDLVKG [N18W]  2.05
51. FPNRTDQQCQYRWLRVLNYDLVKG [P19Y]  2.02
52. FPNRTDQQCQYRWLRVLNPDLVKE [G24E]  2.02
53. FPNRTDQQCQYRWLRVLNNDLVKG [P19N]  2.01
54. FPNATDQQCQYRWLRVLNPDLVKG [R4A]  1.99
55. FPNYTDQQCQYRWLRVLNPDLVKG [R4Y]  1.98
56. FPNRTDQQGQYRWLRVLNPDLVKG [C9G]  1.97
57. FPNRTDQQCQYMWLRVLNPDLVKG [R12M]  1.96
58. FPNRTDQQCQYPWLRVLNPDLVKG [R12P]  1.96
59. YPNRTDQQCQYRWLRVLNPDLVKG [F1Y]  1.95
60. FPNRTDQQCQYWWLRVLNPDLVKG [R12W]  1.95
61. FPNSTDQQCQYRWLRVLNPDLVKG [R4S]  1.95
62. FPNRTDCQCQYRWLRVLNPDLVKG [Q7C]  1.94
63. FPNRTDQQCQYRWLRVLNPDLVKD [G24D]  1.94
64. FQNRTDQQCQYRWLRVLNPDLVKG [P2Q]  1.93
65. FGNRTDQQCQYRWLRVLNPDLVKG [P2G]  1.88
66. FPNRTDQQEQYRWLRVLNPDLVKG [C9E]  1.86
67. FHNRTDQQCQYRWLRVLNPDLVKG [P2H]  1.86
68. FPNRTDVQCQYRWLRVLNPDLVKG [Q7V]  1.85
69. FPNRTDQQCQYRWLRVLNEDLVKG [P19E]  1.85
70. FPNRTDQQCQYRWLRVLNPDLVKF [G24F]  1.85
71. FPNRTDQQCQYRWLRVLNRDLVKG [P19R]  1.84
72. FPNRTDSQCQYRWLRVLNPDLVKG [Q7S]  1.82
73. FPNRTDQQCQYRWLRVLNADLVKG [P19A]  1.81
74. FPNRTDKQCQYRWLRVLNPDLVKG [Q7K]  1.8
75. FPNRTDQQCQYRWLRVLNLDLVKG [P19L]  1.76
76. FPNRTDQQCQYEWLRVLNPDLVKG [R12E]  1.74
77. FPNRTDQQCQYRWLRVLNPDLVKR [G24R]  1.74
78. FPNRTDTQCQYRWLRVLNPDLVKG [Q7T]  1.72
79. FPNRTDQQCQYRWLRVLNPDLVKV [G24V]  1.71
80. FPNRTDQQCQYNWLRVLNPDLVKG [R12N]  1.69
81. FPNRTDLQCQYRWLRVLNPDLVKG [Q7L]  1.69
82. FPNRTDQQCQYRWLRVLNPDLVKS [G24S]  1.68
83. FPNRTDYQCQYRWLRVLNPDLVKG [Q7Y]  1.61
84. FPNRTDQQCQYRWLRVLVPDLVKG [N18V]  1.61
85. FWNRTDQQCQYRWLRVLNPDLVKG [P2W]  1.61
86. FPNRTDQQCQYRWLRVLGPDLVKG [N18G]  1.6
87. FPNRTDQQCQYGWLRVLNPDLVKG [R12G]  1.59
88. FPNITDQQCQYRWLRVLNPDLVKG [R4I]  1.56
89. FPNRTDQQCQYRWLRVLNPDLVKW [G24W]  1.55
90. FPNRTDQQCQYRWFRVLNPDLVKG [L14F]  1.51
91. FPNCTDQQCQYRWLRVLNPDLVKG [R4C]  1.51
92. FPNRTDQQCQYLWLRVLNPDLVKG [R12L]  1.45
93. FPNRTDQQCQYRWWRVLNPDLVKG [L14W]  1.4
94. FPNRTDQQCQYDWLRVLNPDLVKG [R12D]  1.19
